# Data: US20230035798A1 (CAPELLA BIOSCIENCE, published 2023)
# Positions count from the first letter of the chain named.
# B1: 3A07 (antibody, human IgG4, V domains shown)
# VH: QVQLQQSGAELVRPGAPVTLSCKASDYTFTDSEIHWVKQTPVHGLEWIGEIDPETGGTAYNQKFKGKATLTADKSSSTAYMELRSLTSEDSAVYYCSRETDYFFDYWGQGTTLTVSS
# VL: ENVLTQSPAIMSASPGEKVTMTCSASSSVSYMYWYQQRPGSSPRLLIYDTSNLASGVPVRFSGSGSGTSYSLTISRMEAEDAATYYCQQWSSYPLTFGSGTKLEIK
# notes: chimeric human IgG4 (S-to-P, L-to-E at 248), human CL; also called Parental 3A07
# B2: 3B04 (antibody, human IgG4, V domains shown)
# VH: B1 VH with S7P, P17S, D26G, S32Y, I34M, G57D, N61S, L83F
# VL: DIQMTQTPASLSASVGETVTITCGASENIYGALNWYQRKQGKSPQLLIYGATNLADGMSSRFSGSGSGRQYSLKISSLHPDDFATYYCQNVLTTPWTFGGGTKLEIKR
# notes: chimeric: mouse variable domains on human IgG4 HC (S-to-P and L-to-E at 248) and human CL; also called Parental 3B04; 3B04 chimeric
# B3: 3C10 (antibody, human IgG4, V domains shown)
# VH: B1 VH with Q1E, P17S
# VL: B1 VL with E1D, N2V, L4M, S7T, R38K, S99A, I105L
# notes: chimeric human IgG4 (S-to-P, L-to-E at 248), human CL; also called Parental 3C10
# B4: 3D12 (antibody, human IgG4, V domains shown)
# VH: B1 VH with S7P, P17S
# VL: B2 VL with T7S, F83V, T93S
# notes: chimeric: mouse variable domains on human IgG4 HC (S-to-P and L-to-E at 248) and human CL; also called Parental 3D12; 3D12 chimeric
# B5: 3E09 (antibody, V domains shown)
# VH: EVQLVESGGGLVKPGGSLKLSCEASGFTFSDYYMYWVRQTPEKRLEWVAAIGDGGIYTYYADTVKGRFTISRDNAKNILYLQMSSLKSNDTAMYYCARGTGDGFAYWGQGTLVTVS
# VL: DIVLTQSPASLAVSLGQRATISCRASESVDSYGNSFMHWYQQKPGQPPKLLIYLASNLESGVPARFSGSGSRTDFTLTIDPVEADDAATYYCQQNNEDPYTFGGGTKLEIK
# notes: chimeric human IgG4 (S-to-P, L-to-E at 248), human CL; also called Parental 3E09
# B6: 2E08 (antibody, human IgG4, V domains shown)
# VH: QVQMKESGAELVRPGVSVKISCKGSGYTFTDYAIHWVKQSHAKTLEWIGVISTYYGDASYNQKFKGKATMTVDKSSSTAYMELARLTSDDSAIYYCARSRGEYGNYDAMDYWGQGTSVTVSS
# VL: DIVLTQSPASLAVSLGQRATISCKASQSVDYDGDSYMNWYQQKPGQPPKLLIYAASNLESGIPARFSGSGSGTDFTLNIHPVEEEDAATYYCQQSNEDPLTFGAGTKLELK
# notes: chimeric human IgG4 (S-to-P, L-to-E at 248), human CL; also called Parental 2E08
# B7: 2B11 (antibody, human IgG4, V domains shown)
# VH: B6 VH with Q1E, M4L, K5V, T44S, D89E
# VL: B5 VL with L54R, V62I, D80N, A87V, N95S
# notes: chimeric human IgG4 (S-to-P, L-to-E at 248), human CL; also called Parental 2B11
# Columns and labels:
# membrane LIGHT W198A = target: T1, membrane LIGHT W198A (human, UniProt O43557 1-240); assay: flow cytometry, transfected HEK293FF, mAb at EC50
# T1 chain: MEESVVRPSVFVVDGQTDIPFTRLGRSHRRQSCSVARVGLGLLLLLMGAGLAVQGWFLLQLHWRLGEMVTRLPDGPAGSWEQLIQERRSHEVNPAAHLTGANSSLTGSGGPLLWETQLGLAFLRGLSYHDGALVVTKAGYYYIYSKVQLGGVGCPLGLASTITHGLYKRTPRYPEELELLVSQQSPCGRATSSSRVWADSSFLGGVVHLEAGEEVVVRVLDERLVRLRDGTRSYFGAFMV
# Procedure: (§1) The day of transfection the cells were seeded in a 24-well plate at 0.6×10⁶ cells/well. Lipofectamine 2000 (ThermoFisher scientific), 3 μl, was mixed with 50 μl OptiMEM medium (GIBCO) and then added to 50 μl Opti-MEM medium containing 3 ug plasmid DNA and incubated for 20 min at RT to form DNA-Lipofectamine 2000 complexes which were then added to the HEK293FF cells and incubated at 37° C., 5% CO₂ for 24 hours. For each construct, in duplicate, 0.60×10⁶ cells/well were used in a 96 well round bottom plate. Cells were centrifuged for 3 minutes at 300×g at 4° C., the supernatant discarded and the cells washed with 150 μl FACS buffer (0.5% FBS in phosphate buffered saline). This process was repeated 3 times. […] The wells were washed 3 times as above and 50 μl/well of goat anti-human IgG FITC (1:1500 dilution in FACS buffer, SIGMA F9512-2ML) or goat anti-mouse APC (1/500 dilution in FACS buffer, BDBioscience 550826), as appropriate, was added to the wells and incubated for 30 min at 4° C. protected from the light, with shaking. The cells were then washed as above, resuspended in 100 μl of FACS buffer and binding of the antibodies to the constructs was measured using flow cytometry and a total of 10,000 cells were acquired for each sample. Controls of buffer and secondary antibody only as well as HEK293FF non transfected cells were also used.
# membrane LIGHT R189A = target: T2, membrane LIGHT R189A (human, UniProt O43557 1-240); assay: flow cytometry, transfected HEK293FF, mAb at EC50
# T2 chain: T1 chain with R189A, A198W
# Procedure: as §1
# membrane LIGHT R195A = target: T3, membrane LIGHT R195A (human, UniProt O43557 1-240); assay: flow cytometry, transfected HEK293FF, mAb at EC50
# T3 chain: T1 chain with R195A, A198W
# Procedure: as §1
# membrane LIGHT S192A = target: T4, membrane LIGHT S192A (human, UniProt O43557 1-240); assay: flow cytometry, transfected HEK293FF, mAb at EC50
# T4 chain: T1 chain with S192A, A198W
# Procedure: as §1
# [1] = target: T5, human LIGHT (TNFSF14), full length, membrane-bound (214E allele) (human, UniProt O43557 1-240); assay: flow cytometry, transfected HEK293FF, mAb at EC50
# T5 construct: also called membrane LIGHT; human membrane LIGHT
# Procedure: as §1
# membrane LIGHT W197A = target: T6, membrane LIGHT W197A (human, UniProt O43557 1-240); assay: flow cytometry, transfected HEK293FF, mAb at EC50
# T6 chain: T1 chain with W197A, A198W
# Procedure: as §1
# membrane LIGHT S194A = target: T7, membrane LIGHT S194A (human, UniProt O43557 1-240); assay: flow cytometry, transfected HEK293FF, mAb at EC50
# T7 chain: T1 chain with S194A, A198W
# Procedure: as §1
# [2] = target: T5, human LIGHT (TNFSF14), full length, …; assay: competition with biotin-HVEM-Fc, EL4-LIGHT cells, flow cytometry
# Procedure: Biotin-LTβR-Fc and biotin-HVEM-Fc were prepared using a kit purchased from ThermoFisher (EZ-Link NHS-LC-Biotin; cat. no. 21336) according to the manufacturer's instructions. […] The diluent used was FACS buffer. The cells were washed 3 times with FACS buffer and biotin-LTβR-Fc and biotin-HVEM-Fc binding detection to cells was performed with streptavidin-APC (1:400; BioLegend cat. No. 405207) for 30 min at 4° C. and fluorescence read in the RL-1 channel. The anti-HEL mAb 2A11 was utilised as a background control.
# The above experiment was repeated utilising LIGHT stably expressed on EL4-cells and the results depicted in Table 11B.
# Target sequence in this assay (O43557 whole entry K214E): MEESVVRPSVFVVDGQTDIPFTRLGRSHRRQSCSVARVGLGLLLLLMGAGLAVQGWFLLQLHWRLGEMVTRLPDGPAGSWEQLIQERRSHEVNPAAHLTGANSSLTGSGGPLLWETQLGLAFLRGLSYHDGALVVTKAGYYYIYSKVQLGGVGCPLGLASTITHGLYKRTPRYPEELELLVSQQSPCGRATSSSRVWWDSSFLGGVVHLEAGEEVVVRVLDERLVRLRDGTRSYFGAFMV
Binder,"binding, % of WT (membrane LIGHT W198A) [%]","binding, % of WT (membrane LIGHT R189A) [%]","binding, % of WT (membrane LIGHT R195A) [%]","binding, % of WT (membrane LIGHT S192A) [%]","binding, % of WT [1] [%]","binding, % of WT (membrane LIGHT W197A) [%]","binding, % of WT (membrane LIGHT S194A) [%]",IC50 [2] [nM]
B1,82,0,15,41,100,1,1,0.32
B2,81,0,1,88,100,0,0,0.13
B3,86,0,6,35,100,0,0,0.8
B4,83,1,25,84,100,1,2,0.16
B5,48,1,1,50,100,1,1,24.1
B6,83,2,43,122,100,0,3,4.3
B7,77,0,78,96,100,0,0,0.34
